Test results published in patent US20250352611A1, “METHODS FOR TREATING CATARACTS USING POLYPEPTIDES” (REJUKON BIOPHARM INC., priority 2022, published 2025).
Where no end group is shown, it is not given here.

Tests used:
G3BP1-GFP protein = target: T1, G3BP1-GFP protein (Mus musculus, UniProt P97855); experiment: G3BP1-GFP phase separated droplet dissolution, confocal laser microscope; assay type: biochemical; details: 60 uM polypeptide, 20 uM G3BP1-GFP
T1 construct: Genes of full-length mouse G3BP1, G3BP1-eGFP; thrombin protease cleavage site (C); His6 (C); made in house; host or cells: Escherichia coli rosetta (DE3)
Experimental: The prokaryotic expressed and purified G3BP1-GFP protein (pH7.5, 20 uM G3BP1-GFP) was induced to form phase separated droplets in vitro. Polypeptides Champ-E (RJK001), Champ-D (RJK002), Champ-K (RJK012) and Champ-Q (RJK005, […], SEQ ID NO: 34) (each of 60 uM) were added dropwise to the G3BP1-GFP droplets. The observation was performed continuously through a confocal laser microscope.
For G3BP1(FL)-eGFP, purified G3BP1(FL)-eGFP, Champ-E and its variants were changed were diluted to droplet buffer (50 mM Tris, pH 7.5, 150 mM NaCl) using SpinDesalt Column (smart). G3BP1(FL)-eGFP proteins were diluted to indicated concentrations and supplemented with PEG8000 with 1.25% final concentration for 10 min to induce phase separation as reported.

G3BP1 = target: T2, G3BP1 (Mus musculus, UniProt P97855); experiment: G3BP1 turbidity assay (OD395 nm); assay type: biochemical; details: G3BP1 30 μM, ratio range 0.75 to 25, room temperature, 10 minutes
T2 construct: Genes of full-length mouse G3BP1, G3BP1-eGFP; thrombin protease cleavage site (C); His6 (C); made in house; host or cells: Escherichia coli rosetta (DE3)
Experimental: The turbidity of G3BP1 (30 μM) in the presence of various concentrations of Champ-E, Champ-D, Champ-K, or Champ-Q was measured at a wavelength of 395 nm. Briefly, G3BP1 protein ([…]) and polypeptides Champ-E (RJK001), Champ-D (RJK002), Champ-K (RJK012) and Champ-Q (RJK005) were mixed well in a ratio range of 0.75 to 25 at room temperature for 10 minutes prior to turbidity assays. Absorbance at 395 nm (OD395 nm) was monitored at room temperature using Nanodrop ONE (Thermo Fisher Scientific, Inc.). […] The turbidity level reflects the degree of phase separation.
Briefly, the G3BP1 protein and the above-mentioned peptides were mixed at room temperature for 10 minutes prior to turbidity assays. 30 μM G3BP1 and peptide were mixed well in a ratio range of 0.75 to 25 before test. Absorbance at 395 nm (OD395 nm) was monitored at room temperature using Nanodrop ONE (Thermo Fisher Scientific, Inc.).
We followed the Turbidity Assays experiment as previously reported. Briefly, G3BP1 turbidity analysis were at room temperature and γD-crystallin protein was at 4° C. Proteins and Champ-E(RJK001), Champ-K, Champ-D or mutants are mixed at room temperature for 10 minutes prior to turbidity assays. 20 μM G3BP1 and 50 mg/ml(2.5 mM) γD-crystallin and peptide were mixed well in a ratio range of 0.75 to 25 before test. Absorbance at 395 nm (OD395 nm) was monitored at room temperature using Nanodrop ONE (Thermo Fisher Scientific, Inc.).

[1] = Half-life of cell-penetrating peptide fused Champ peptides in eukaryotic cells (western blot); assay type: in vitro ADME; details: SH-SY5Y cells harvested at 1 h, 4 h, 8 h and 24 h, western blot
Experimental: (§1) As described in Example 1, the polypeptide RJK001 was fused at its C-terminal with a cell-penetrating peptide ([…]) and the polypeptide RJK012 was fused at its N-terminal with a cell-penetrating peptide ([…]).
(§2) C-terminal fusion cell-penetrating peptide RJK001 and N-terminal fusion cell-penetrating peptide RJK012 were purified in vitro and added into SH-SY5Y cell. Cells were harvested at 1 h, 4 h, 8 h and 24 h respectively and were washed with PBS. Total proteins were extracted from SH-SY5Y cells with lysis buffer. Equal amounts of protein (20 μg) were separated by SDS-PAGE (15% separating gel). For data analysis, ImageJ was used to detect the Integrated density of each protein bands, and the ratio and half-life of Champ peptides were calculated by comparing with the positive control. […]
(§3) Cells were harvested at 1 h, 4 h, 8 h and 24 h respectively and were washed with PBS. […] For data analysis, quantification of the western blot bands was achieved using the software GELPRO (Media Cybernetics). The ratio and half-life of Champ peptides were calculated by comparing with the positive control. The presented quantitative data were calculated from three independent experiments.

[2] = system: γD (W42D) aggregates in the SH-SY5Y cell; experiment: γD (W42D) aggregates in SH-SY5Y cells, live imaging and CellProfiler analysis; assay type: cell-based; details: added every 4 hours for a total of 24 hours
Experimental: Cells were grown in a 12-well plate (1×10^5 cells per well) for 24 hours and transfected with γD (W42D) plasmid using EZtrans transfection reagent. 24 hours after transfection, Champ peptides RJK001 (final concentration of 20 uM) and RJK0012 (final concentration of 10 uM and 20 uM) were added into SH-SY5Y cell culture medium every 4 hours for a total of 24 hours. The effect of RJK001 and RJK012 polypeptide on the γD (W42D) aggregates in the SH-SY5Y cell mode were analyzed using a custom CellProfiler software. Briefly, cell bodies were then segmented and identified by the GFP fluorescence channel images and tracing outward to the limits of the cytoplasmic (using a diameter cutoff of 100-300 pixels). The cell bodies were used as masks to eliminate imaging artifacts outside of cell boundaries, such as background fluorescence or dead cells. After masking, punctate structures were enhanced by image processing for speckle-like features that were 10 pixels in diameter for SH-SY5Y cells and these punctate structures were then annotated as features such as γD (W42D) puncta. Finally, the total image area which was enclosed in each of the identified features (number of cell and punctate) was calculated and output to spreadsheets. At least 200 cells per sample were analyzed. […]
Granules screen and assay images were segmented and image features quantified using a custom CellProfiler and ImageJ software. […] The effect of RJK001 and RJK012 polypeptide on the γD ([…]) aggregates in the SH-SY5Y cell mode were analyzed using a custom CellProfiler software. Briefly, cell bodies were then segmented and identified by the GFP fluorescence channel images and tracing outward to the limits of the cytoplasmic (using a diameter cutoff of 100-300 pixels). The cell bodies were used as masks to eliminate imaging artifacts outside of cell boundaries, such as background fluorescence or dead cells. […] Finally, the total image area which was enclosed in each of the identified features (number of cell and punctate) was calculated and output to spreadsheets. At least 200 cells per sample were analyzed.

[3] = target: T3, wild-type human full-length γD-crystallin (human, UniProt P07320 1-174); experiment: 1H-15N HSQC NMR chemical shift differences, 15N γD-crystallin with unlabeled RJK001 at 1:2
T3 construct: It was uniformly 15N-labelled for the HSQC experiment and unlabelled for the turbidity assay; also called full-length wildtype γD-crystallin protein; 15N γD-crystallin
T3 sequence (looked up): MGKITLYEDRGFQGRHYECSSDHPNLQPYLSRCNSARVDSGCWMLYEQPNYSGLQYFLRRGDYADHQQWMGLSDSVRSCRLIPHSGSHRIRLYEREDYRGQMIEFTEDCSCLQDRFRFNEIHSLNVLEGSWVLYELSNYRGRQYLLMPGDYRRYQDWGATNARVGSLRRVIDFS
Experimental: Using final 300 uM human γD-crystallin at 25° C., the two-dimensional [¹H-¹⁵N] heteronuclear single quantum coherence (HSQC) spectra were recorded to determine the domain interactions at the residue-specific level.

SH-SY5Y cells = experiment: Half-life of cell-penetrating peptide fused Champ peptides in eukaryotic cells (western blot); assay type: in vitro ADME
Experimental: as §1, §2, §3

## TDPQDDSDDDVDDPDDRQQTPDVVPDDSGTFYDQTVSNDLD [RJK002, Asp variant of Champ-E]
G3BP1-GFP protein; pH7.5, 40s after addition
  dissolution of G3BP1-GFP phase separated droplets: partially dissolved the phase separated droplets
G3BP1-GFP protein; pH7.5, 120s after addition
  dissolution of G3BP1-GFP phase separated droplets: dissolved more phase separated droplets
G3BP1
  turbidity of G3BP1 (OD395 nm): reduced the turbidity in a concentration dependent manner

## TEPQEESEEEVEEPEERQQTPEVVPDDSGTFYDQTVSNDLEGGRKKRRQRRRHHHHHHHH
[1]
  half-life: ~8 h

## TKPQKKSKKKVKKPKKRQQTPKVVPDDSGTFYDQTVSNDLK [RJK012, Lys variant of Champ-E]
G3BP1-GFP protein; pH7.5, 40s after addition
  dissolution of G3BP1-GFP phase separated droplets: significantly dissolved the phase separated droplets
G3BP1
  turbidity of G3BP1 (OD395 nm): reduced the turbidity in a concentration dependent manner
[2]; 10 uM
  number of γD (W42D) aggregates in the SH-SY5Y cell: reduced the number of γD (W42D) aggregates in the SH-SY5Y cell in a time-dependent manner until 6 hours
[2]; 20 uM
  number of γD (W42D) aggregates in the SH-SY5Y cell: reduced the number of γD (W42D) aggregates in the SH-SY5Y cell in a time-dependent manner until 12 hours

## TQPQQQSQQQVQQPQQRQQTPQVVPDDSGTFYDQTVSNDLQ [RJK005]
G3BP1-GFP protein; pH7.5, 120s after addition
  dissolution of G3BP1-GFP phase separated droplets: did not dissolve the phase separated droplets
G3BP1
  turbidity of G3BP1 (OD395 nm): much less effect on the reduction of the turbidity

B1: Champ-E (RJK001) (peptide)
peptide: TEPQEESEEEVEEPEERQQTPEVVPDDSGTFYDQTVSNDLE
notes: The peptide was unlabeled in the NMR experiment; also called short peptide RJK001
[3]
  binding result: binds

B2: RQIKIWFQNRRMKWKKKTKPQKKSKKKVKKPKKRQQTPKVVPDDSGTFYDQTVSNDLKSGRPVLHHHHHH (peptide)
chain: RQIKIWFQNRRMKWKKKTKPQKKSKKKVKKPKKRQQTPKVVPDDSGTFYDQTVSNDLKSGRPVLHHHHHH
G3BP1
  turbidity of G3BP1 (OD395 nm): reduce the turbidity in a concentration dependent manner
SH-SY5Y cells
  half-life in eukaryotic cells: about 8 hours
